{"source": "patent US20250297255A1", "about": "(ARSENAL BIOSCIENCES, published 2025)", "binders": {"B1": {"name": "TMPRSS4 Ab77 scFv (VH-VL) (scFv)", "scFv": "QVQLVQSGAEVKKPGASVKVSCKASGNIFTAQYMHWVRQAPGQGLEWMGWMNPNTVYTGSAQKFQGRVTMTRDTSTSTVYMELSSLRSEDTAVYYCARDWVGDGYNSFDYWGQGTLVTVSSGGGGSGGGGSGGGGSDIVMTQSPDSLAVSLGERATINCKSSQSVLYSSNNKNYLAWYQQKPGQPPKLLIYWASTRESGVPDRFSGSGSGTDFTLTISSLQAEDVAVYYCQQYYTTPFTFGPGTKVDIK", "notes": "on monoclonal phage in the screen"}, "B2": {"name": "TMPRSS4 Ab71 scFv (VH-VL) (scFv)", "scFv": "EVQLLESGGGLVQPGGSLRLSCAASGFMFDYYAMHWVRQAPGKGLEWVSLISYDGRNKYYADSVKGRFTISRDNSKNTLYLQMNSLRAEDTAVYYCARPGSYSRFQHWGQGTLVTVSSGGGGSGGGGSGGGGSDIQMTQSPSSLSASVGDRVTITCRASQGISNNLNWYQQKPGKAPKLLIYAASSLQSGVPSRFSGSGSGTDFTLTISSLQPEDFATYYCQQANNFPITFGQGTKVEIK", "notes": "as for B1"}, "B3": {"name": "TMPRSS4 Ab75 scFv (VH-VL) (scFv)", "scFv": "EVQLLESGGGLVQPGGSLRLSCAASGFTFSSYAMSWVRQAPGKGLEWVSSISSASSYKYYADSVKGRFTISRDNSKNTLYLQMNSLRAEDTAVYYCARDIYSSGWRGYYYYGMDVWGQGTTVTVSSGGGGSGGGGSGGGGSDIQMTQSPSSLSASVGDRVTITCRASQGIRNDLNWYQQKPGKAPKLLIYAATRLQSGVPSRFSGSGSGTDFTLTISSLQPEDFATYYCQQAHSFPYSFGQGTRLEIK", "notes": "as for B1"}, "B4": {"name": "TMPRSS4 Ab72 scFv (VH-VL) (scFv)", "scFv": "EVQLLESGGGLVQPGGSLRLSCAASGFTFGAYVMHWVRQAPGKGLEWVSSISGGSTYYADSVKGRFTISRDNSKNTLYLQMNSLRAEDTAVYYCARHPVRGVIGAGWFDPWGQGTLVTVSSGGGGSGGGGSGGGGSDIQMTQSPSSLSASVGDRVTITCRASQNISRWLAWYQQKPGKAPKLLIYAASSLQSGVPSRFSGSGSGTDFTLTISSLQPEDFATYYCQQAISFPLTFGGGTKVEIK", "notes": "as for B1"}, "B5": {"name": "TMPRSS4 Ab76 scFv (VH-VL) (scFv)", "scFv": "EVQLLESGGGLVQPGGSLRLSCAASGFTFSSYAMSWVRQAPGKGLEWVSAISGSGGNAYYADSVKGRFTISRDNAKNSLYLQMNSLRAEDTAVYYCAKNSWGSYRPRAFDIWGQGTMVTVSSGGGGSGGGGSGGGGSDIVMTQSPDSLAVSLGERATINCKSSQSVLYSSNNKNYLAWYQQKPGQPPKLLIYWASTRASGVPDRFSGSGSGTDFTLTISSLQAEDVAVYYCQQYLSLPYTFGQGTKVEIK", "notes": "as for B1"}, "B6": {"name": "TMPRSS4 Ab7 scFv (VH-VL) (scFv)", "scFv": "QVQLVQSGAEVKKPGASVKVSCKASGYTFSRYFMHWVRQAPGQGLEWVGWINPNSGNTGYAQKFQGRVTMTRDTSTSTVYMELSSLRSEDTAVYYCARVVTGGRLDVWGQGTTVTVSSGGGGSGGGGSGGGGSEIVMTQSPATLSVSPGERATLSCRASQRVSNNYLAWYQQKPGQAPRLLIYGASTRASGIPARFSGSGSGTEFTLTISSLQSEDFAVYYCQQYGSTPYTFGQGTKVEIK", "notes": "as for B1"}, "B7": {"name": "TMPRSS4 Ab74 scFv (VH-VL) (scFv)", "scFv": "EVQLLESGGGLVQPGGSLRLSCAASGFTFSSYAMHWVRQAPGKGLEWVSSISSSSTYIHYADSVKGRFTISRDNSKNTLYLQMNSLRAEDTAVYYCARVGRYYGSGSSLVDYWGQGTLVTVSSGGGGSGGGGSGGGGSDIQMTQSPSSLSASVGDRVTITCRASQSVSSWLAWYQQKPGKAPKLLIYDASSLQSGVPSRFSGSGSGTDFTLTISSLQPEDFATYYCQQAKSFPPTFGQGTKVEIK", "notes": "as for B1"}, "B8": {"name": "TMPRSS4 Ab69 scFv (VH-VL) (scFv)", "scFv": "EVQLLESGGGLVQHGGSLRLSCAASGFAFSSYVLHWVRQAPGKGLEWVSSISSSSSYIYYADSVKGRFTISRDNSKNTLYLQMNSLRAEDTAVYYCARGDRYPGLPNYWGQGTLVTVSSGGGGSGGGGSGGGGSDIQMTQSPSSLSASVGDRVTITCRASQGISSWLAWYQQKPGKAPKLLIYQASNKDTGVPSRFSGSGSGTDFTLTISSLQPEDFATYYCQQSYRIPWTFGQGTKVEIK", "notes": "as for B1"}, "B9": {"name": "TMPRSS4 Ab8 scFv (VH-VL) (scFv)", "scFv": "QVQLVQSGAEVKKPGASVKVSCKASGYRFTSQYMHWVRQAPGQGLEWMGIINPSGGSTSYAQKFQGRVTMTRDTSTSTVYMELSSLRSEDTAVYYCARGRIAVAGHPLGYWGQGTLVTVSSGGGGSGGGGSGGGGSDIQMTQSPSSLSASVGDRVTITCRASQSISSWLAWYQQKPGKAPKLLIYGASSLQSGVPSRFSGSGSGTDFTLTISSLQPEDFATYYCQQANSFPPTFGGGTKVEIK", "notes": "as for B1"}, "B10": {"name": "TMPRSS4 Ab9 scFv (VH-VL) (scFv)", "scFv": "QVQLVQSGAEVKKPGASVKVSCKASGYTFTRYYMHWVRQAPGQGLEWMGWINPNSGGTNYAQKFQGRVTMTRDTSTSTVYMELSSLRSEDTAVYYCARGGSWGSGPLGYWGQGTLVTVSSGGGGSGGGGSGGGGSDIQMTQSPSSLSASVGDRVTITCQASQDISRFLHWYQQKPGKAPKLLIYGASNLKSGVPSRFSGSGSGTDFTLTISSLQPEDFATYYCQQSYSTPPTFGGGTKVEIK", "notes": "as for B1"}, "B11": {"name": "TMPRSS4 Ab70 scFv (VH-VL) (scFv)", "scFv": "EVQLLESGGGLVQPGGSLRLSCAASGFAFSGTWMQWVRQAPGKGLEWVSDISGSSRDTNYADSVKGRFTISRDNSKNTLYLQMNSLRAEDTAVYYCAKDHWDSYGYLDYWGQGTLVTVSSGGGGSGGGGSGGGGSDIQMTQSPSSLSASVGDRVTITCRASQSISGWLAWYQQKPGKAPKLLIYAASTLRDGVPSRFSGSGSGTDFTLTISSLQPEDFATYYCQQANSFPLTFGQGTKVEIK", "notes": "as for B1"}, "B12": {"name": "TMPRSS4 Ab78 scFv (VH-VL) (scFv)", "scFv": "EVQLLESGGGLVQPGGSLRLSCAASGFTFSSYGMNWVRQAPGKGLEWVSAISGSGGRTYYADSVKGRFTISRDNAKNSLYLQMNSLRAEDTAVYYCAKGTYYSSPKYSFDYWGQGTLVTVSSGGGGSGGGGSGGGGSDIQMTQSPSSLSASVGDRVTITCRASQDIKNFLAWYQQKPGKAPKLLIYAASSLQSGVPSRFSGSGSGTDFTLTISSLQPEDFATYYCQQSYSTPWTFGQGTKLEIK", "notes": "as for B1"}, "B13": {"name": "SLC34A2 Ab 15 (antibody, human IgG1, kappa, V domains shown)", "VH": "QVQLQESGPGLVKPSETLSLTCTVSGGSVSSASYYWSWIRQPPGKGLEYIGYIYYSGSTYYNPSLKSRVTISIDTSKNQFSLNLRSVTAADTAVYYCARYIVGRPGFNWFDPWGQGTLVTVSS", "VL": "DIQMTQSPSSLSASVGDRVTITCRASQSISSYLNWYQQKPGKAPKFLISPASSLQSGVPSRFSGSGSGTDFTLTISSLQPEDFATYYCQQSYSIPWTFGQGTKVEIKR", "notes": "recombinant hIgG1/kappa"}, "B14": {"name": "SLC34A2 Ab 16 (antibody, human IgG1, kappa, V domains shown)", "VH": "B13 VH with G27D, A32V, Y49W, Y54W, N83K", "VL": "B13 VL with S28T, F46L, S53N, S93I", "notes": "recombinant hIgG1/kappa"}, "B15": {"name": "SLC34A2 Ab 8 (antibody, human IgG1, kappa, V domains shown)", "VH": "QVQLQESGPGLVKPSETLSLTCTVSGGSISSRSYYWGWIRQPPGKGPEWIGSIYYSGSTFYNPSLKSRVTISEDTSKSQFSLKVTSVTAADTAVYYCARHPAGYSSSWSAFDIWGQGTMVTVSS", "VL": "EIVLTQSPSSLSASVGDRVTITCRASQSISSYLNWYQLKPGKAPKLLIYAASSLHSGVPSRFSGSGSGTDFTLTISSLQPADFATYYCQQAYISLTFGQGTRLEIKR", "notes": "recombinant hIgG1/kappa from TAP products in Expi293"}, "B16": {"name": "SLC34A2 Ab 9 (antibody, human IgG1, kappa, V domains shown)", "VH": "QVQLVESGGGLVQPGRSLRLSCSGSGFTSGDYAVSWVRQAPGKGLEWVGFIRTKPYGETTEYAASVKGRFTISRDDSKSIAYLQMNSLKAEDTAVFYCTFIPVSRFLEWLPWGQGIPVTVSS", "VL": "DIQMTQSPSSLSAFVGDRVTITCRASQDIGNYLAWYQQTPEKVPKLLIYAASTLQSGVPSRFSGSGSGTDFTLTISSLQPEDVATYYCQNYYSVPWTFGQGTKVEIKR", "notes": "recombinant hIgG1/kappa"}, "B17": {"name": "SLC34A2 Ab 10 (antibody, human IgG1, kappa, V domains shown)", "VH": "QVQLLESGGGLVQPGASLRLSCAASGFTFSTYAMTWVRQAPGKGLEWVSGINGGGDTTYYADSVKGRFTISRDNSKNTLYLQMNSLRAEDTAVYYCAVRGYTYGYFFDYWGQGTLVTVSS", "VL": "DIQMTQSPSSLSASVGDRVTITCRASQGISNYLAWYQQRPGKVPKLLIYAASTLRSGVPSRFSGSGSGTDFTLTISSLQPEDVATYYCQKYNSAPLTFGGGTKVEIKR", "notes": "recombinant hIgG1/kappa"}, "B18": {"name": "SLC34A2 Ab 11 (antibody, human IgG1, kappa, V domains shown)", "VH": "QVQLQESGPGLVKPSETLSLTCTVSGGSISSSSYYWGWIRQPPGKGLEWIGSLYYSGSTYYNPSLKSRVTISVDTSKNQFSLKLNSVTAADTAVYYCTRHPRGIAARWGNWFDPWGQGTLVTVSS", "VL": "EIVLTQSPSSLSASVGDRLTITCRASQTISSYLNWYQQKPGKAPKVLIYAASSLQSGVPSRFSGSGSGTDFTLTISSLQPEDFATYYCQQSFIIPYTFGQGTKLEIKR", "notes": "as for B15"}}, "note": "Residue numbers refer to the chain shown, from its start."}
{"target": "T1, Human TMPRSS4 (Transmembrane protease, serine 4), wild type full length (human, UniProt Q9NRS4 1-437)", "T1 construct": "Type II membrane protein over-expressed on HEK293T cells (also endogenous on H1975 and LUDLU-1 cells); also called TMPRSS4 WT; HEK293T-TMPRSS4", "T1 sequence (Q9NRS4 whole entry)": "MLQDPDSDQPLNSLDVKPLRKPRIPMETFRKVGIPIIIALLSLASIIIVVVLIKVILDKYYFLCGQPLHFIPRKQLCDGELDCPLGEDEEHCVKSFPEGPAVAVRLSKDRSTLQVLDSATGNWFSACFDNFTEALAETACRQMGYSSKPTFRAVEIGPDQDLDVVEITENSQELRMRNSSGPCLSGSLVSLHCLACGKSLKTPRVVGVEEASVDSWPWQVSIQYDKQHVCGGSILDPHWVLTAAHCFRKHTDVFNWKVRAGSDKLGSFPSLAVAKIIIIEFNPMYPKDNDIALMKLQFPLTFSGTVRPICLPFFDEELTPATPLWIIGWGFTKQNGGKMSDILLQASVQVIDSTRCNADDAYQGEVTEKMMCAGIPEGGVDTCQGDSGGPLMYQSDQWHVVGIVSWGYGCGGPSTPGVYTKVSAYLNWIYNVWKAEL", "test": "flow cytometry, monoclonal phage on HEK293T-TMPRSS4 cells;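 note: bound phage detected with a PE-labelled mouse anti-M13 monoclonal antibody, read by flow cytometry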"}
{"binder": "B1", "binding result": "binds"}
{"binder": "B2", "binding result": "binds"}
{"binder": "B3", "binding result": "binds"}
{"binder": "B4", "binding result": "binds"}
{"binder": "B5", "binding result": "binds"}
{"binder": "B6", "binding result": "binds"}
{"binder": "B7", "binding result": "binds"}
{"binder": "B8", "binding result": "binds"}
{"binder": "B9", "binding result": "binds"}
{"binder": "B10", "binding result": "binds"}
{"binder": "B11", "binding result": "binds"}
{"binder": "B12", "binding result": "binds"}
{"target": "T2, Human Solute Carrier Family 34 Member 2 (SLC34A2) (human, UniProt O95436 1-690)", "T2 construct": "Endogenous on OVCAR-3 cells; engineered on 786-O cells in the CAR kinetics assay; also called NaPi2b; NPT2B", "T2 sequence": "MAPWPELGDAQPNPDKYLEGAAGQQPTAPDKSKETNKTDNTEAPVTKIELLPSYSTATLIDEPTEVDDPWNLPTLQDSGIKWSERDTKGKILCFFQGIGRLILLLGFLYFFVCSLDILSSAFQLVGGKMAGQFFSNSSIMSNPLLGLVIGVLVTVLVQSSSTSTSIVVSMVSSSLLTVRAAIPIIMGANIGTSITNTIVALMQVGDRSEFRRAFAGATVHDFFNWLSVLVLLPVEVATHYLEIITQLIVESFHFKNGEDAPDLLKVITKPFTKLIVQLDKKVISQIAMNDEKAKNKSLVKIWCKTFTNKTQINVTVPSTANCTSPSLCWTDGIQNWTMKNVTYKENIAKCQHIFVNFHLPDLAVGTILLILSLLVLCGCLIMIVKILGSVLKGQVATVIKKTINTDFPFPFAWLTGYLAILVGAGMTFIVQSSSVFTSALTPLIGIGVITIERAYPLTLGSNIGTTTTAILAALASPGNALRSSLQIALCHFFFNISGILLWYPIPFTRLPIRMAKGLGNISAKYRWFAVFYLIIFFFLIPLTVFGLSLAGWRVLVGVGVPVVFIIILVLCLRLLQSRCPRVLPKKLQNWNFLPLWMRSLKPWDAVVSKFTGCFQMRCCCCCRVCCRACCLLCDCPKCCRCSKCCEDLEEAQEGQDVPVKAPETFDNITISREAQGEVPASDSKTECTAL", "test": "flow cytometry on OVCAR-3 cells (endogenous human SLC34A2), hIgG1/kappa, 8 five-fold dilutions from 133 nM;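 note: binding read as geometric mean fluorescence intensity, with non-transfected HEK293 cells serving as the negative control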", "units": {"EC50": "nM"}}
{"binder": "B13", "EC50": 8, "Max Signal by flow cytometry": 346}
{"binder": "B14", "EC50": 6, "Max Signal by flow cytometry": 296}
{"binder": "B15", "EC50": 6, "Max Signal by flow cytometry": 354}
{"binder": "B16", "EC50": 37, "Max Signal by flow cytometry": 281}
{"binder": "B17", "EC50": 20, "Max Signal by flow cytometry": 218}
{"binder": "B18", "EC50": 6, "Max Signal by flow cytometry": 224}
